Test results taken from the supplement of paper PMC10567573.

B1: MNAT1 (parent)
chain: SLREYNDFLEEVEEIVFNLTNNVD
B2: SPOPL (parent)
chain: AKREETKAMESQRAYRFVQGKDWG

Variants of: B1
Experiment: protein stability index of a GFP-peptide fusion (GPS, HEK-293T) (PSI 1-6); higher = more stable
Settings: c terminus: a fixed tail appended
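Note: lentivirally expressed fusions sorted by FACS into six bins by GFP to DsRed ratio, PSI derived from sequencing read proportions per bin multiplied by bin number.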

Protein stability index of substitutions, site by site:
S1: R 2.21, Q 2.81, L 1.87, N 3.35, E 2.03, C 1.72, K 1.94, T 1.85, P 3.1, Y 1.69, V 2.1, F 2.67, H 2.24, M 1.82, A 2.1, W 2.11, D 2.62, I 2.23
L2: C 2.67, A 2.58

Variants of: B2
Experiment: as above
Settings: c terminus: a fixed tail appended

Protein stability index, by site and new letter:
S11: I 2.44, W 1.88, N 3.47, A 2.07, M 2.33, H 2.83, L 2.36, P 2.72, D 4.06, T 2.76, R 2.96, F 2.14, Y 2.59, Q 3.58, K 3.15, V 2.53, E 3.77, G 2.54, C 2.23
V18: I 2.66, T 3.96, P 4.07, E 4.15, L 3.51, W 2.43, G 3.67, Q 3.16, H 2.84, F 3.32, N 4.14, A 4.22, C 3.51, D 4.05, M 3.42, S 4.19, Y 3.78, K 4.13, R 3.99
Q12: L 1.82, E 3.65, S 3.4, K 2.94, P 2.97, T 2.78, Y 2.69, D 3.85, F 2.13, I 1.99, V 2.06, A 2.63, G 2.76, N 3.35, H 2.48, R 2.61, M 2.39, W 2.4, C 2.55
M9: Q 3.69, V 3.43, P 3.27, C 3.58, E 3.85, G 3.45, H 3.25, A 3.66, L 3, F 2.79, K 3.35, D 3.71, Y 2.83, W 2.74, I 3.55, T 3.66, N 3.33, S 3.87, R 3.11
K21: W 3.44, Q 3.02, S 2.67, C 3.28, P 2.4, D 3.99, M 3.43, E 3.46, R 2.51, V 3.1, T 3.04, A 2.96, I 2.94, Y 3.08, F 3.62, N 3.11, L 2.67, H 2.32, G 2.83
Q19: R 3.93, I 2.6, K 3.43, D 2.54, F 3.19, S 2.44, A 1.15, Y 2.77, V 2.37, C 2.68, W 2.38, H 3.04, L 2.15, M 2.25, T 2.73, N 2.85, P 3.22, E 2.6
E10: T 3.06, Q 2.95, M 2.29, G 2.69, L 2.3, A 2.61, C 2.63, H 2.33, R 2.39, I 2.15, V 2.75, N 3.34, K 2.96, P 3.18, S 3, F 2.37, D 3.02, W 2.4, Y 1.73
A8: R 3.43, V 2.42, P 2.9, M 2.87, S 3.37, W 1.37, T 3.37, Y 2.77, L 2.38, N 3.03, Q 3.75
Y15: N 4.35, L 2.51, D 5.19, F 1.39, E 4.26, I 4.26, T 4.7, A 4.14, Q 3.89, S 4.68, H 3.98, C 2.9, M 3.02, R 4.3, W 3.25, V 3.92, G 4, P 4.21, K 4.61
D22: G 3.96, K 3.77, A 3.14, V 3.82, L 2.94, N 2.74, C 3.13, Q 3.18, I 3.4, S 3.42, T 3.86, M 2.95, R 4.09, H 3.1, F 2.94, W 2.55, E 3.17, P 3.18, Y 2.76
A14: N 3.24, Q 3.25, E 3.67, W 2.81, P 2.83, S 3.3, C 2.82, T 3.63, G 1.9, V 3.42, I 3.8, K 3.98, D 3.1, H 3.38, F 3.49, M 3.49, Y 2.83, R 3.18, L 3.3
F17: Y 4.18, T 4.04, I 4.02, M 3.96, H 3.72, W 4.36, S 4.19, R 4.59, C 4.24, A 4.73, L 3.67, K 4.45, V 3.94, P 4.03, G 4.68, N 4.59, Q 4.37, E 4.61, D 4.72
R16: H 4.49, L 3.6, Q 4.17, A 3.69, V 3.51, W 2.94, S 4.04, F 2.63, P 3.68, N 4.2, G 3.63, C 3.77, T 4.04, K 3.99, I 3.42, Y 3.24, M 3.65, E 4.2, D 4.07
R13: F 2.8, Q 3.67, E 4.24, T 3.42, L 2.36, I 3.11, D 4.47, H 3.62, S 3.38, C 2.72, Y 3.32, P 2.61, K 3.67, N 3.92, V 2.28, G 3.61, W 2.26, A 3.65, M 2.54
G20: F 3.49, L 2.88, R 3.59, D 4.06, Y 3.13, H 3.33, S 3.35, K 3.64, N 3.76, A 3.33, W 2.72, E 4.31, P 2.83, Q 4.14, T 3.41, I 2.73, V 3.19, C 2.97, M 2.58
G24: P 2.45, L 2.64, T 2.96, V 2.91, F 1.81, M 2.54, D 4.16, E 3.24, H 3.39, Y 2.41, W 2.27, R 3.73, C 2.18, I 3, K 4.32, S 3.49, A 3.44, N 3.63, Q 4.07
W23: M 4.86, E 5.14, P 4.79, A 4.8, D 4.4, T 4.86, I 4.18, F 3.53, Y 4.05, S 4.91, K 4.87, G 4.88, C 4.9, L 4.21, N 3.65, Q 4.8, H 4.77, R 4.49, V 4.72
